Earlier results, collected in paper PMC5403572.

Key:
[1] = molecular target: Asp32 (UniProt position 93, LNILVDTGSSN); assay: kinetics; conditions: apo (free) enzyme
[2] = molecular target: Asp228 (UniProt position 289, DKSIVDSGTTN); assay: kinetics; conditions: apo (free) enzyme

In the case of “Beta-secretase 1 (BACE1, memapsin 2) (Homo sapiens)”, the pKa [1] is listed as 5.2 and the pKa [2] is listed as 3.5.
